# Patent publication US20260275319A1, “ARCHAEAL PEPTIDE RECOMBINASE – A NOVEL PEPTIDE LIGATING ENZYME” (MAX-PLANCK-GESELLSCHAFT ZUR FÖRDERUNG DER WISSENSCHAFTEN …, priority 2019, published 2026)
# Where “and” joins values, the source holds several entries; their conditions need not be identical. Equal entries are not always repeated. Where two headings read alike, the source gives them in different places.
# Assays:
# [1] = target: M. jannaschii MtrA^Δ194-245 (Methanocaldococcus jannaschii, UniProt Q58261); settings: 1:1 molar mixture, 200 μM, Superdex S200, light scattering
# Chain of M. jannaschii MtrA^Δ194-245 (Q58261 1-189, stated change not applied): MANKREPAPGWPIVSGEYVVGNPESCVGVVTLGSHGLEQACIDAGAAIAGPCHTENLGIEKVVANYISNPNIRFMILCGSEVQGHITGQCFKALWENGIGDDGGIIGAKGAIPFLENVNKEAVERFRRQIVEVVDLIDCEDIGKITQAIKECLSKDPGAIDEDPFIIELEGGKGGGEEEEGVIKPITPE
# Method: Data analysis was carried out with ASTRA v7.3.0.18 software (Wyatt).
# For this purpose, size exclusion chromatography using 50 μl 200 μM M. jannaschii Adriase^ΔOB (SEQ ID NO: 132), M. jannaschii MtrA^Δ194-245 (SEQ ID NO:420) or a 1:1 molar mixture of the Adriase-MtrA pair was analyzed using a Superdex S200 10/300 GL gel size-exclusion column (20 mM HEPES-NaOH pH 7.5, 50 mM NaCl, 100 mM KCl) coupled to a miniDAWN Tristar Laser photometer (Wyatt).
# To investigate, whether the OB fold alone is sufficient to bind Adriase in the above experimental set-up, we repeated the same analysis using M. jannaschii Adriase^ΔNTN (SEQ ID NO: 519). Specifically, size exclusion chromatography using 50 μl 200 μM M. jannaschii Adriase^ΔNTN (SEQ ID NO: 519), M. jannaschii MtrA^Δ194-245 (SEQ ID NO:420) or a 1:1 molar mixture of the Adriase-MtrA pair was analyzed using a Superdex S200 10/300 GL gel size-exclusion column (20 mM HEPES-NaOH pH 7.5, 50 mM NaCl, 100 mM KCl) coupled to a miniDAWN Tristar Laser photometer (Wyatt).
# [2] = tested on: (15)KDPGA(10) and PGA(10F) substrates; settings: 100 nM enzyme, 15 μM substrates, 8 min, 85° C. (M. jannaschii variants) or 50° C. (M. mazei)
# Method: In a second set of experiments, the ligase activity of Adriase variants was tested with (15)KDPGA(10)(SEQ ID NO: 419) and PGA(10F)(SEQ ID NO:414) substrates. […] Furthermore, M. mazei Adriase (SEQ ID NO: 380) was tested for ligase activity with the same M. jannaschii peptide substrates to assess whether variety within the recognition motif is tolerated. The read out for Adriase activity was the detection of fluorescently labeled ligation product (10)KDPGA(10F)(SEQ ID NO: 418).
# The reaction was performed in optimized M. jannaschii Adriase buffer (20 mM MES-NaOH pH 5.8, 150 mM NaCl, 100 mM KCl, 5 mM TCEP-HCl) for 8 min at 85° C. when M. jannaschii derived Adriase variants were used and at 50° C. in optimized M. mazei Adriase buffer (50 mM acetic acid, 50 mM MES, 50 mM HEPES, 100 mM NaCl, 50 mM KCl, 5 mM TCEP, pH 7.0) when M. mazei Adriase was used and stopped by addition of 2% SDS. Samples were then separated on 12% polyacrylamide gels (Thermo) and fluorescent products visualized by UV light.
# [3] = tested on: Ub-(5)KDPGA(15) and PGA(15)-Ub; test: Comparison with Sortase: Adriase-catalyzed protein-protein ligation
# Method: (§1) (SEQ ID NO: 536) and GGG-Ub (SEQ ID NO: 666) were recorded. The Adriase assays were conducted with 3.13 μM and 100 μM substrate concentration and 0.0025 molar equivalents Adriase (SEQ ID NO: 380) in reaction buffer (50 mM acetic acid, 50 mM MES, 50 mM HEPES, 100 mM NaCl, 50 mM KCl, 5 mM TCEP, pH 7.0) at 50° C. The SrtA5* and SrtA assays were conducted with 3.13 μM and 100 μM substrate concentration and either 1 or 0.1 molar equivalents SrtA5* or SrtA (SEQ ID NO: 535 and 662) in Sortase buffer (50 mM Tris-HCl pH 7.5, 150 mM NaCl, 10 mM CaCl2) at 37° C. At various time points (0 s, 28 s, 55 s, 88 s, 126 s, 171 s, 225 s, 295 s, 393 s, 554 s, 1125 s, 1670 s and 2250 s), an aliquot of the reaction was mixed with 2% SDS. Samples were then separated on 12% polyacrylamide gels (Thermo) and stained with Coomassie blue. The band intensities of educt and product bands were quantified using ImageJ v1.52a, assuming that all ubiquitin molecules bind the coomassie dye in a similar manner. The results were used to plot the time courses for each experiment.
# [4] = tested on: (5)KDPGA(10F) and PGA(10) substrates; test: M. mazei Adriase peptide-peptide ligation time courses and Michaelis-Menten plot; assay type: biochemical; settings: 50° C.
# Source text: The band intensity of the respective fluorescently labeled PGA(10F) peptides (SEQ ID NO: 455), which were released by the ligation reactions were quantified using ImageJ v1.50i and subtracted from background signal in control reactions without PGA(10) peptides.
# [5] = tested on: Ub-(5)KDPGA(15) and PGA(15)-Ub substrates; test: M. mazei Adriase protein-protein ligation kinetics
# Method: Specifically, different concentrations (0.39 μM, 0.78 μM, 1.56 μM, 3.13 μM, 6.25 μM, 12.5, 25, 50 or 100 μM; three independent experiments per concentration) of Ub-(5)KDPGA(15)(SEQ ID NO: 520) and PGA(15)-Ub (SEQ ID NO: 521) substrates were incubated with 0.0025 molar equivalents of M. mazei Adriase (SEQ ID NO: 380) in reaction buffer (50 mM acetic acid, 50 mM MES, 50 mM HEPES, 100 mM NaCl, 50 mM KCl, 5 mM TCEP, pH 7.0) at 50° C. At various time points (0 s, 28 s, 55 s, 88 s, 126 s, 171 s, 225 s, 295 s, 393 s, 554 s, 1125 s, 1670 s and 2250 s), an aliquot of the reaction was mixed with 2% SDS. Samples were then separated on 12% polyacrylamide gels (Thermo) and stained with Coomassie blue (FIG. 21A). The band intensities of educt and product bands were quantified using ImageJ v1.52a, assuming that all ubiquitin molecules bind the coomassie dye in a similar manner. The results were used to plot the time courses for each experiment (FIG. 21B).
# the data fit for each time course allowed the determination of the maximum rate parameter for each concentration. These maximum rates were then used in a Michaelis-Menten plot (FIG. 21C) to approximate kinetic measures.
# [6] = tested on: Ub-(5)KDPGA(15)-Strep and PGA(10); test: Test for hydrolase activity with protein substrate
# Method: To investigate, whether this characteristic also holds true with protein substrates, the above experiment was repeated with Ub-(5)KDPGA(15)-Strep substrate (SEQ ID NO: 522). Specifically, 25 μM Ub-(5)KDPGA(15)-Strep and 25 μM PGA(10)(SEQ ID NO: 454) were incubated with either 25 nM or 25 μM M. mazei Adriase (SEQ ID NO: 380) in optimized buffer (50 mM acetic acid, 50 mM MES, 50 mM HEPES, 100 mM NaCl, 50 mM KCl, 5 mM TCEP, pH 7.0) at 50° C. After 140 s, 320 s, 575 s, 1002 s, 30 min or 90 min, aliquots were removed and mixed with 2% SDS to stop the reaction.
# [7] = tested on: Ub-(5)KDPGA(10) and PGA(10)-sdAb/CyP/GST; test: Ligation of unrelated protein substrates (sdAb, CyP, GST); assay type: biochemical, M. mazei; settings: 0.9 μM enzyme, 3.7 μM substrates, 37° C., 10 min
# [8] = target: LPETG (primary) and GGG (secondary) substrates (Staphylococcus aureus, UniProt Q2FV99); settings: Frankel (2005); cited from earlier work
# Chain of LPETG (primary) and GGG (secondary) substrates (Staphylococcus aureus, UniProt Q2FV99) (Q2FV99 60-206): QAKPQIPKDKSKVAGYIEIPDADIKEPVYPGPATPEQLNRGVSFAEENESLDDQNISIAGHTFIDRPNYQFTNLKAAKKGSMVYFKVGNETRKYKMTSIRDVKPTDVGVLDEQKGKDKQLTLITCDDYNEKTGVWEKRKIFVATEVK
# [9] = tested on: LPETG (primary) and GGG (secondary) substrates; settings: cited from earlier work
# [10] = tested on: Ub-GGSLPETGGGHHHHHH and GGG-Ub; test: Comparison with Sortase: SrtA / SrtA5* catalyzed protein-protein ligation; settings: 3.13 μM each substrate, enzyme:substrate ratio 1:1, 37° C.
# Method: as §1
# [11] = tested on: (15)KDPGA(10) and PGA(10F) substrates; settings: FIG. 14
# Method: Specifically, 15 μM of (15)KDPGA(10)(SEQ ID NO: 419) and 15 μM of fluorophore-coupled PGA(10F)(SEQ ID NO: 374) substrates were incubated optimized M. jannaschii Adriase buffer (20 mM MES-NaOH pH 5.8, 150 mM NaCl, 100 mM KCl, 5 mM TCEP-HCl) for 8 min at 80° C. with either various Adriase concentrations. The assay was performed with either 7 nM, 21 nM, 62 nM, 185 nM, 556 nM, 1666 nM, 5000 nM or 15000 nM N-terminally modified Adriase (N-His, SEQ ID NO: 450) or 0 nM, 7 nM, 21 nM or 62 nM unmodified Adriase (SEQ ID NO: 385) and stopped by addition of 2% SDS. Samples were then separated on 12% polyacrylamide gels (Thermo) and fluorescent products visualized by UV light.
molecule,measurement,setting,value
Adriase^ΔOB S1A (protein) ALIICYYGKNGAVIGGDRRQIFFRGSEENRKILEEKLYSGEIKSEEELYKLAEKLNIKIIIEDDREKVRKISDSVVCGEVRSLGIDAKRRRVYATKGKCAIVDILNDTVTNQTIKEGFGIVVLGNRFLKKKAEEELKRTAKLFPMMPIQQIEDAIKEIFEKLKWHPTVSKEYDIYSVNKYEKNFEEVIKKDIESLFKYREQGSHHHHHH,complex formation with MtrA,[1],decreased affinity
"Adriase^ΔOB: M. jannaschii Adriase without OB-like domain (Δ203-293), C-terminal His6-tag (protein, C-terminal His6-tag; M. jannaschii Adriase without OB, with C-terminal His-tag) SLIICYYGKNGAVIGGDRRQIFFRGSEENRKILEEKLYSGEIKSEEELYKLAEKLNIKIIIEDDREKVRKISDSVVCGEVRSLGIDAKRRRVYATKGKCAIVDILNDTVTNQTIKEGFGIVVLGNRFLKKKAEEELKRTAKLFPMMPIQQIEDAIKEIFEKLKWHPTVSKEYDIYSVNKYEKNFEEVIKKDIESLFKYREQGSHHHHHH",ligase activity (fluorescent ligation product),[2],still catalytically active
"M. mazei Adriase: Methanosarcina mazei Adriase (MM_2909), archaeal peptide recombinase, C-terminal His6-tag; Strep-, Myc-, HA-tagged versions used as pulldown bait (protein, C-terminal His6-tag; M. mazei Adriase with C-terminal His-tag, Methanosarcina mazei Adriase (MM_2909), archaeal peptide recombinase, C-terminal His6-tag; Strep-, Myc-, HA-tagged versions used as pulldown bait) TLVIAFIGKNGAVMAGDMREITFEGEKPDREKLEKELYSGSIVTDEEMQKKAEEFGVKITVADCKEKVSERNGVLVGEVSSAEGGVVKKRRLYASAGNFAIAELINTEMTLTSQGKGSNFIAFGNEFTKQVANKCFKDNWTKKSNLQDAVKILILCMETVARKTASVSKQFMIVQTASNADVLKVVEKDRNCGSHHHHHH",ligase activity (fluorescent ligation product),[2],showed activity
same,substrates ligated (on a molar basis),"[3]; 3.13 μM each substrate, enzyme:substrate ratio 1:400",~ 50%
same,yield compared to Sortase,[3]; 100 μM substrates,~ 1.7 ×
same,ligase activity / ligation rate compared to SrtA5*,"[3]; 100 μM substrates, Adriase 0.0025 molar equivalents, 50° C., SrtA5* 37° C.",~ 40 × and > 40 ×
same,ligase activity / ligation rate compared to SrtA,"[3]; 100 μM substrates, Adriase 0.0025 molar equivalents, 50° C., SrtA 37° C.",~ 4000 × and > 4000 ×
same,ligation yield,[3]; compared to ~30% in the Sortase reactions,~ 50%
same,maximum rate,"[4]; 0.001 molar equivalents enzyme, pH 7.0, Michaelis-Menten model",~ 2.25 ligations per enzyme and second
same,substrate concentration at half maximal reaction speed,"[4]; each substrate, pH 7.0",~ 9 μM
same,ligation rate coefficient,[5]; 25 μM substrate concentration,0.74 ± 0.05 s⁻¹
same,ligation rate coefficient,[5]; 50 μM substrate concentration,0.88 ± 0.07 s⁻¹
same,ligation rate coefficient,[5]; 100 μM substrate concentration,0.90 ± 0.14 s⁻¹
same,substrate concentration at half-maximum rate,"[5]; each substrate, equimolar, protein-protein ligation, 50° C., pH 7.0",2.2 µM
same,maximum rate,"[5]; protein-protein ligation, 0.0025 molar equivalents enzyme, 50° C., pH 7.0",0.92 ligations per enzyme and second
same,product formation,"[6]; enzyme:substrate 1:1000 (1×), 30 minutes",~ 50%
same,amount of ligation product,"[6]; prolonged incubation (90 min), 1000× increased Adriase concentration",~ 50%
same,ligation of protein pairs,[7],efficiently ligates all three protein pairs
"SrtA: Staphylococcus aureus Sortase A without N-terminal membrane anchor (residues 1-59), N-terminal His6-tag (protein, listed as Staphylococcus aureus, N-terminal His6-tag; His6-SrtA 1-59, Staphylococcus aureus Sortase A without N-terminal membrane anchor (residues 1-59), N-terminal His6-tag) MRGSHHHHHHGSQAKPQIPKDKSKVAGYIEIPDADIKEPVYPGPATPEQLNRGVSFAEENESLDDQNISIAGHTFIDRPNYQFTNLKAAKKGSMVYFKVGNETRKYKMTSIRDVKPTDVEVLDEQKGKDKQLTLITCDDYNEKTGVWEKRKIFVATEVK",Kcat Ligation/Kcat Hydrolysis,[8],≈ 3.3
same,Km,"[9]; primary substrate used in excess, read-out: KM for the secondary substrate",0.196 mM
same,Km,"[9]; secondary substrate used in excess, read-out: KM for the primary substrate",7.33 mM
same,ligase activity at low substrate concentrations,[10],only spurious ligase activity
"428-57: M. jannaschii Adriase without the insertion element that distinguishes Adriase from proteasome subunits, C-terminal His6 (protein, C-terminal His6; M. jannaschii Adriase 28-57, C-terminal His6) SLIICYYGKNGAVIGGDRRQIFFRGSGKIIIEDDREKVRKISDSVVCGEVRSLGIDAKRRRVYATKGKCAIVDILNDTVTNQTIKEGFGIVVLGNRFLKKKAEEELKRTAKLFPMMPIQQIEDAIKEIFEKLKWHPTVSKEYDIYSVNKYEKNFEEVIKKDIESLFKYREQLRKQLIDFGKVMSIVNKIVKNGEIGVIKDGKLHLYDDYIAIDKIDPNPKVFKVVDVEGNFKDGDIVVIENGDMKIKGTNEKVTTKYIIIHKGSHHHHHH",ligase activity (fluorescent ligation product),[2],abolishes ligase activity
"M. jannaschii Adriase^ΔNTN (protein, listed as Methanosarcina mazei, Methanosarcina mazei Go1; Adriase NTN with C-terminal His-tag) MEQLRKQLIDFGKVMSIVNKIVKNGEIGVIKDGKLHLYDDYIAIDKIDPNPKVFKVVDVEGNFKDGDIVVIENGDMKIKGTNEKVTTKYIIIHKGSHHHHHH",complex formation with MtrA,[1],no complex is formed
"M. jannaschii Adriase: Methanocaldococcus jannaschii Adriase (MJ_0548) with C-terminal His6-tag (protein, C-terminal His6-tag; M. jannaschii Adriase with C-terminal His-tag) SLIICYYGKNGAVIGGDRRQIFFRGSEENRKILEEKLYSGEIKSEEELYKLAEKLNIKIIIEDDREKVRKISDSVVCGEVRSLGIDAKRRRVYATKGKCAIVDILNDTVTNQTIKEGFGIVVLGNRFLKKKAEEELKRTAKLFPMMPIQQIEDAIKEIFEKLKWHPTVSKEYDIYSVNKYEKNFEEVIKKDIESLFKYREQLRKQLIDFGKVMSIVNKIVKNGEIGVIKDGKLHLYDDYIAIDKIDPNPKVFKVVDVEGNFKDGDIVVIENGDMKIKGTNEKVTTKYIIIHKGSHHHHHH",rate of product generation compared to N-terminally modified Adriase,[11],~ 200 ×
"M. jannaschii Adriase^S1A (protein, C-terminal His-tag; M. jannaschii Adriase S1A mutant with C-terminal His-tag) ALIICYYGKNGAVIGGDRRQIFFRGSEENRKILEEKLYSGEIKSEEELYKLAEKLNIKIIIEDDREKVRKISDSVVCGEVRSLGIDAKRRRVYATKGKCAIVDILNDTVTNQTIKEGFGIVVLGNRFLKKKAEEELKRTAKLFPMMPIQQIEDAIKEIFEKLKWHPTVSKEYDIYSVNKYEKNFEEVIKKDIESLFKYREQLRKQLIDFGKVMSIVNKIVKNGEIGVIKDGKLHLYDDYIAIDKIDPNPKVFKVVDVEGNFKDGDIVVIENGDMKIKGTNEKVTTKYIIIHKGSHHHHHH",ligase activity (fluorescent ligation product),[2],no ligation product is observed
same,complex formation with MtrA,[1],form a heterodimer
"SrtA5* (protein, listed as Staphylococcus aureus, C-terminal His-tag; SrtA5* delta 1-59 with C-terminal His-tag) MQAKPQIPKDKSKVAGYIEIPDADIKEPVYPGPATREQLNRGVSFAEENESLDDQNISIAGHTFIDRPNYQFTNLKAAKKGSMVYFKVGNETRKYKMTSIRNVKPTAVEVLDEQKGKDKQLTLITCDDYNEETGVWETRKIFVATEVKLEHHHHHH",increased rates compared to the wild type enzyme,[9]; Chen (2011),up to 120 ×
same,Km,"[9]; Chen (2011), read-out: KM GGG",4.7 mM
same,Km,"[9]; Chen (2011), read-out: KM LPETG",0.17 mM
same,ligase activity at low substrate concentrations,[10],only spurious ligase activity
